Results as given in paper PMC5493697, “Crystal structure of Pelagibacterium halotolerans PE8: New insight into its substrate-binding pattern” (Scientific Reports, 2017).

Substrate: CC(=O)Oc1ccc([N+](=O)[O-])cc1
Assay: purified protein
Type: biochemical, Pelagibacterium halotolerans
Settings: 100 mM Tris-HCl pH 7.5, 30 °C, 0.05-4 mM substrate in acetonitrile

Row | Protein | Km | Vmax | kcat
1 | PE8 (Pelagibacterium halotolerans B2; S118A) (protein, 6xHis fusion from pET28b in E. coli Rosetta (DE3), Ni-NTA and SEC; monomer; catalytic triad Ser118, Asp169, His201) MTEPVKLSGPMLPAVSGAAKSLVVLLHGYGSDGRDLIALGQFWRDSFPDTMFVAPNAPHVCGGNPFGYEWFPLDLERDRTLARLAGAETAHPVLDAFLADLWAQTGLGPADTILVGFAQGAMMALYTGLRLPEPLKAIIAFSGLIVAPEKLEAEIASKPPVLLIHGDLDDVVPVIGSETALPKLIDLGIDARLHISQGSGHTIAQDGLDTATAFLREIL | 540 ± 46 µM | 12 µM/min/mg | 5.1 ± 0.14 s⁻¹
2 | PE8 (Pelagibacterium halotolerans B2; R79A) (protein, 6xHis fusion from pET28b in E. coli Rosetta (DE3), Ni-NTA and SEC; monomer; catalytic triad Ser118, Asp169, His201) MTEPVKLSGPMLPAVSGAAKSLVVLLHGYGSDGRDLIALGQFWRDSFPDTMFVAPNAPHVCGGNPFGYEWFPLDLERDATLARLAGAETAHPVLDAFLADLWAQTGLGPADTILVGFSQGAMMALYTGLRLPEPLKAIIAFSGLIVAPEKLEAEIASKPPVLLIHGDLDDVVPVIGSETALPKLIDLGIDARLHISQGSGHTIAQDGLDTATAFLREIL | 600 ± 62 µM | 132 µM/min/mg | 55 ± 1.7 s⁻¹
3 | PE8 (Pelagibacterium halotolerans B2) (protein, 6xHis fusion from pET28b in E. coli Rosetta (DE3), Ni-NTA and SEC; monomer; catalytic triad Ser118, Asp169, His201) MTEPVKLSGPMLPAVSGAAKSLVVLLHGYGSDGRDLIALGQFWRDSFPDTMFVAPNAPHVCGGNPFGYEWFPLDLERDRTLARLAGAETAHPVLDAFLADLWAQTGLGPADTILVGFSQGAMMALYTGLRLPEPLKAIIAFSGLIVAPEKLEAEIASKPPVLLIHGDLDDVVPVIGSETALPKLIDLGIDARLHISQGSGHTIAQDGLDTATAFLREIL | 660 ± 49 µM | 71 µM/min/mg | 30 ± 0.68 s⁻¹
4 | PE8 (Pelagibacterium halotolerans B2; M122A) (protein, 6xHis fusion from pET28b in E. coli Rosetta (DE3), Ni-NTA and SEC; monomer; catalytic triad Ser118, Asp169, His201) MTEPVKLSGPMLPAVSGAAKSLVVLLHGYGSDGRDLIALGQFWRDSFPDTMFVAPNAPHVCGGNPFGYEWFPLDLERDRTLARLAGAETAHPVLDAFLADLWAQTGLGPADTILVGFSQGAAMALYTGLRLPEPLKAIIAFSGLIVAPEKLEAEIASKPPVLLIHGDLDDVVPVIGSETALPKLIDLGIDARLHISQGSGHTIAQDGLDTATAFLREIL | 75 ± 6.9 µM | 96 µM/min/mg | 40 ± 0.68 s⁻¹
5 | PE8 (Pelagibacterium halotolerans B2; V171A) (protein, 6xHis fusion from pET28b in E. coli Rosetta (DE3), Ni-NTA and SEC; monomer; catalytic triad Ser118, Asp169, His201) MTEPVKLSGPMLPAVSGAAKSLVVLLHGYGSDGRDLIALGQFWRDSFPDTMFVAPNAPHVCGGNPFGYEWFPLDLERDRTLARLAGAETAHPVLDAFLADLWAQTGLGPADTILVGFSQGAMMALYTGLRLPEPLKAIIAFSGLIVAPEKLEAEIASKPPVLLIHGDLDDAVPVIGSETALPKLIDLGIDARLHISQGSGHTIAQDGLDTATAFLREIL | 890 ± 70 µM | 36 µM/min/mg | 19 ± 0.42 s⁻¹
6 | PE8 (Pelagibacterium halotolerans B2; V172A) (protein, 6xHis fusion from pET28b in E. coli Rosetta (DE3), Ni-NTA and SEC; monomer; catalytic triad Ser118, Asp169, His201) MTEPVKLSGPMLPAVSGAAKSLVVLLHGYGSDGRDLIALGQFWRDSFPDTMFVAPNAPHVCGGNPFGYEWFPLDLERDRTLARLAGAETAHPVLDAFLADLWAQTGLGPADTILVGFSQGAMMALYTGLRLPEPLKAIIAFSGLIVAPEKLEAEIASKPPVLLIHGDLDDVAPVIGSETALPKLIDLGIDARLHISQGSGHTIAQDGLDTATAFLREIL | 500 ± 35 µM | 82 µM/min/mg | 35 ± 0.63 s⁻¹
7 | PE8 (Pelagibacterium halotolerans B2; R83A) (protein, 6xHis fusion from pET28b in E. coli Rosetta (DE3), Ni-NTA and SEC; monomer; catalytic triad Ser118, Asp169, His201) MTEPVKLSGPMLPAVSGAAKSLVVLLHGYGSDGRDLIALGQFWRDSFPDTMFVAPNAPHVCGGNPFGYEWFPLDLERDRTLAALAGAETAHPVLDAFLADLWAQTGLGPADTILVGFSQGAMMALYTGLRLPEPLKAIIAFSGLIVAPEKLEAEIASKPPVLLIHGDLDDVVPVIGSETALPKLIDLGIDARLHISQGSGHTIAQDGLDTATAFLREIL | 600 ± 23 µM | 97 µM/min/mg | 41 ± 0.42 s⁻¹
8 | PE8 (Pelagibacterium halotolerans B2; L73A) (protein, 6xHis fusion from pET28b in E. coli Rosetta (DE3), Ni-NTA and SEC; monomer; catalytic triad Ser118, Asp169, His201) MTEPVKLSGPMLPAVSGAAKSLVVLLHGYGSDGRDLIALGQFWRDSFPDTMFVAPNAPHVCGGNPFGYEWFPADLERDRTLARLAGAETAHPVLDAFLADLWAQTGLGPADTILVGFSQGAMMALYTGLRLPEPLKAIIAFSGLIVAPEKLEAEIASKPPVLLIHGDLDDVVPVIGSETALPKLIDLGIDARLHISQGSGHTIAQDGLDTATAFLREIL | 530 ± 26 µM | 55 µM/min/mg | 23 ± 0.27 s⁻¹
